For this series the following is noted: Capra hircus; pH 7.5; 25 °C; GdnHCl; CD; Tris 20 mM; Ca2+ 10 mM; whole UniProt chain shown.

B1: Alpha-lactalbumin wild type, P00712 (protein)
chain: MMSFVSLLLVGILFHATQAEQLTKCEVFQKLKDLKDYGGVSLPEWVCTAFHTSGYDTQAIVQNNDSTEYGLFQINNKIWCKDDQNPHSRNICNISCDKFLDDDLTDDIVCAKKILDKVGINYWLAHKALCSEKLDQWLCEKL
With B1, the denaturant m value turned out to be 3 kcal/mol/M and the unfolding free energy was 10.2 kcal/mol.

The record behind these values is FireProtDB (doi:10.1021/bi0512400).
